Test results published in US20260130997A1 (BEAM THERAPEUTICS, published 2026).

What was measured:
[1] = biological target: T1, purified CD45 protein N267S (Homo sapiens, UniProt P08575 225-394, limits assumed); assay: biosensor; 100 nM mAb030-9 captured with Anti-Human IgG Fc Capture (AHC), 300 nM purified CD45 protein
T1 construct: Purified CD45 variant of the biosensor assay
T1 chain: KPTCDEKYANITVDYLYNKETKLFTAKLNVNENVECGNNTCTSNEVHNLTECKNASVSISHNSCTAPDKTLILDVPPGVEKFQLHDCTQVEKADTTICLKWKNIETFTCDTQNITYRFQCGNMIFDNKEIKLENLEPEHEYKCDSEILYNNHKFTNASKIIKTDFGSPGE
Procedure: (§1) 300 nM of purified CD45 protein was contacted with the immobilized antibody. At 300 s the biosensor was placed in buffer without purified CD45 protein.

[2] = biological target: T2, purified CD45 protein E259G (Homo sapiens, UniProt P08575 225-394, limits assumed); assay: as above
T2 construct: Purified CD45 variant of the biosensor assay
T2 chain: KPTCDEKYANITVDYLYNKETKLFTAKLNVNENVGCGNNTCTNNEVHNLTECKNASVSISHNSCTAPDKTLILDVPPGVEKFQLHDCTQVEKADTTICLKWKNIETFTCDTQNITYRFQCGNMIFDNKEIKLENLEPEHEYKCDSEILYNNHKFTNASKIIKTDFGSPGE
Procedure: as §1

- response [1]: < 0.05 nm
- response [2]: < 0.05 nm
B1: mAb U139AGL030-9 (mAb030-9) (antibody, mouse IgG1, kappa, V domains shown)
VH: EVKLLESGGGLVQPGGSLKLSCAASGFDFSRYWMSWVRQAPGKGLEWIGEINPTSSTINFTPSLKDKVFISRDNAKNTLYLQMSKVRSEDTALYYCARGNYYRYGDAMDYWGQGTSVTVSS
VL: DIALTQSPASLAVSLGQRATISCRASKSVSTSGYSYLHWYQQKPGQPPKLLIYLASNLESGVPARFSGSGSGTDFTLNIHPVEEEDAATYYCQHSRELPFTFGSGTKLEIKR
notes: In the biosensor assay the antibody was captured with Anti-Human IgG Fc Capture (AHC); also called mAb30-9; mAb039-9
